Measurements from publication PMC4797284.
Blank lines part the entries; values can stand above or below the substance they belong to.

Legend:
[1] = biological target: RepDE, chimera of the 21 kDa fragment of RepD fused to the 14 kDa fragment of RepE (residues 35-314) (Staphylococcus aureus) (UniProt P03065); experiment: crystal structure
[2] = biological target: RepDN, chimera of the 21 kDa fragment of RepD fused to the 14 kDa fragment of RepN (residues 35-314) (Staphylococcus aureus) (UniProt P03065); experiment: crystal structure
[3] = biological target: RepSTK1, core domain of the replication initiator protein of cryptic plasmid pSTK1 from Geobacillus stearothermophilus (residues 1-269) (Geobacillus stearothermophilus); experiment: crystal structure; RepSTK1 crystals, space group P2(1)2(1)2(1), four molecules per asymmetric unit; protein dialysed against 50 mM Tris-HCl pH 7.5, 700 mM KCl; grown at 294 K as described in ref. 27; data at 100 K

Substance: RepDE, chimera of the 21 kDa fragment of RepD fused to the 14 kDa fragment of RepE (residues 35-314) (from UniProt P03065;P12053)
stoichiometry N [1]: 2

Substance: RepDN, chimera of the 21 kDa fragment of RepD fused to the 14 kDa fragment of RepN (residues 35-314) (from UniProt P03065;P19529)
stoichiometry N [2]: 2

stoichiometry N [3]: 2
Substance: RepSTK1, core domain of the replication initiator protein of cryptic plasmid pSTK1 from Geobacillus stearothermophilus (residues 1-269) (domain or fragment)
